Measurements reported in US20030203464.

B1: Type I Rac-GEF (protein)
chain: MEYMPMEIRHDLEILQPEEIKLQEAMFELVTSEASYYKSLNLLVSHFMENERIRKILHPSEAHILFSNVLDVLAVSERFLLELEHRMEENIVISDVCDIVYRYAADHFSVYITYVSNQTYQERTYKQLLQEKAAFRELIAQLELDPKCRGLPFSSFLILPFQRITRLKLLVQNILKRVEERSERECTALDAHKELEMVVKACNEGVRKMSRTEQMISIQKKMEFKIKSVPIISHSRWLLKQGELQQMSGPKTSRTLRTKKLFHEIYLFLFNDLLVICRQIPGDKYQVFDSAPRGLLRVEELEDQGQTLANVFILRLLENADDREATYMLKASSQSEMKRWMTSLAPNRRTKFVSFTSRLLDCPQVQCVHPYVAQQPDELTLELADILNILDKTDDGWIFGERLHDQERGWFPSSMTEEILNPKIRSQNLKECFRVHKMDDPQRSQNKDRRKLGSRNRQ
B2: Type II Rac-GEF (protein)
chain: B1 chain

RhoA, P61586, sequence (P61586 whole entry): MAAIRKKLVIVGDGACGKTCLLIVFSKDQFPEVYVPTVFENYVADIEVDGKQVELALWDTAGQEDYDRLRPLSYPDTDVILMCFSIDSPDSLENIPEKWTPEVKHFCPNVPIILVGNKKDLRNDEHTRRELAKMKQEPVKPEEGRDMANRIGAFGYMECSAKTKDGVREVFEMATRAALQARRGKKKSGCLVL
Cdc42, P60953, sequence (P60953 whole entry, looked up): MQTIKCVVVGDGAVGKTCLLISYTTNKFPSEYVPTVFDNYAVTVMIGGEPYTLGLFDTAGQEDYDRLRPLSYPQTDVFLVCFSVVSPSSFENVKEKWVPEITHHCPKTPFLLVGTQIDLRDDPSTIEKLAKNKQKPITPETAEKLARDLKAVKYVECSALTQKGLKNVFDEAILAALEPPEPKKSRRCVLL

Protein	exchange activity on Rac1, RhoA and Cdc42 (Cdc42, P60953)	exchange activity on Rac1, RhoA and Cdc42 (Rac1, P63000)	exchange activity on Rac1, RhoA and Cdc42 (RhoA, P61586)
B1	but also displays activity against both RhoA and Cdc42	Rac GEF is primarily selective for Rac1	but also displays activity against both RhoA and Cdc42
B2	but also displays activity against both RhoA and Cdc42	Rac GEF is primarily selective for Rac1	but also displays activity against both RhoA and Cdc42
